This assay deals with T1, purified full length CFTR (UniProt P13569 1-1480).
T1 construct: cystic fibrosis transmembrane conductance regulator, full length, called Wt-CFTR in the SPR methods; also called pure CFTR; Wt-CFTR; source: purified, gift from Pr Robert Ford (University of Manchester, UK)
Description: SPR; Biacore 3000, calumenin amine-coupled to a CM5 chip (about 2000 RU), CFTR injected at 0.15 to 1.5 nM, 5 µl/min, HBS-EP pH 7.4, 25°C, triplicate. The following applies: both partners purified.

T1 sequence (P13569 whole entry): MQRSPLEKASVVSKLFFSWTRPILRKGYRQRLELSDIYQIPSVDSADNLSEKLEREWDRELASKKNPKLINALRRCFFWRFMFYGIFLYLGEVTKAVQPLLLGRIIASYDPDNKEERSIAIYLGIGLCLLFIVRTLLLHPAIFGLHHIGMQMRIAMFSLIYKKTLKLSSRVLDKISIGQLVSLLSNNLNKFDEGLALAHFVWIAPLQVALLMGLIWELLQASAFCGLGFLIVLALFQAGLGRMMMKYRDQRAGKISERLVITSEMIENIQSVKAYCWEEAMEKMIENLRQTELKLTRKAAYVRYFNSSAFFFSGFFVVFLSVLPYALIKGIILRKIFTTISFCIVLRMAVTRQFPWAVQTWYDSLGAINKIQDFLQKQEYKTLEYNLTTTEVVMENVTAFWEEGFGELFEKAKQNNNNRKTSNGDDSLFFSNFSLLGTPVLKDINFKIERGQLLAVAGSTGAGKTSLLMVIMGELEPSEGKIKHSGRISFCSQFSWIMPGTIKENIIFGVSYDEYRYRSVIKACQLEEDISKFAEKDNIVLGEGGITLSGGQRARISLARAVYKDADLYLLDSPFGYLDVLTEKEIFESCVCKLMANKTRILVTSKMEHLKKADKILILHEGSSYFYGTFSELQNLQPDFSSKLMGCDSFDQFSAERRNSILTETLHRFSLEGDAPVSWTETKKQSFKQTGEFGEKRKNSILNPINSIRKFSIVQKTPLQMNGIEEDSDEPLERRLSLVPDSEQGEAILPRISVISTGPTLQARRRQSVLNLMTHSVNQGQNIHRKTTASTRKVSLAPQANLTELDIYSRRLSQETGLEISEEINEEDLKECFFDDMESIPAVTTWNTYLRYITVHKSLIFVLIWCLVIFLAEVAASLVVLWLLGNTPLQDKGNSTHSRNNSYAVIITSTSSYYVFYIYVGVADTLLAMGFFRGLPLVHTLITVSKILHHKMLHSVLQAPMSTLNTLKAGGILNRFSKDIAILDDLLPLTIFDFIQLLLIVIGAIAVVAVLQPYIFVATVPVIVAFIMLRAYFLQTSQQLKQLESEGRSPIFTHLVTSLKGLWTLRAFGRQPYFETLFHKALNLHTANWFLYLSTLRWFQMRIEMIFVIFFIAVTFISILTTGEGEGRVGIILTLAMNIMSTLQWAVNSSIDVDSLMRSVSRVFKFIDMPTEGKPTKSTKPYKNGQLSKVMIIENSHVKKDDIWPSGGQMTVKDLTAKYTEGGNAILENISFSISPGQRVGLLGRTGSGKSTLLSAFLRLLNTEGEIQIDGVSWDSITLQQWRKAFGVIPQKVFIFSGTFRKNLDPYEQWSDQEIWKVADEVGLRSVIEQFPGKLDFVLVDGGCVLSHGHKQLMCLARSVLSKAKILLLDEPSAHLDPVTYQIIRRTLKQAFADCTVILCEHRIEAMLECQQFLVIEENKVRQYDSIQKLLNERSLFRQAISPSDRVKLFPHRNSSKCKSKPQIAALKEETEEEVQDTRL

B1: Pure recombinant human calumenin (natural protein, UniProt O43852 20-315, looked up)
chain: KPTEKKDRVHHEPQLSDKVHNDAQSFDYDHDAFLGAEEAKTFDQLTPEESKERLGKIVSKIDGDKDGFVTVDELKDWIKFAQKRWIYEDVERQWKGHDLNEDGLVSWEEYKNATYGYVLDDPDPDDGFNYKQMMVRDERRFKMADKDGDLIATKEEFTAFLHPEEYDYMKDIVVQETMEDIDKNADGFIDLEEYIGDMYSHDGNTDEPEWVKTEREQFVEFRDKNRDGKMDKEETKDWILPSDYDHAEAEARHLVYESDQNKDGKLTKEEIVDKYDLFVGSQATDFGEALVRHDEF
notes: calumenin, human, recombinant; No catalogue number, host, limits or tag are printed; also called pure calumenin; source: bought: Prospec (Israel)
The term Kd denotes the free concentration of one partner at which half of the binding sites on the other are occupied at equilibrium, for simple one-to-one binding. Read a low Kd as higher affinity. B1 registered a Kd of 3.8 pM.

(Values after article PMC3387016, “Proteomic Identification of Calumenin as a G551D - CFTR Associated Protein” (PLoS ONE, 2012).)
